{
  "source": "patent US20130331333A1",
  "about": "(HADASIT MEDICAL RESEARCH SERVICES AND DEVELOPMENT, published 2013)",
  "binders": {"B1": {"name": "GST-PH-Etk/Bmx (other, UniProt P51813 1-111, looked up)", "chain": "MDTKSILEELLLKRSQQKKKMSPNNYKERLFVLTKTNLSYYEYDKMKRGSRKGSIEIKKIRCVEKVNLEEQTPVERQYPFQIVYKDGLLYVYASNEESRSQWLKALQKEIR", "notes": "domain: PH domain; Made as in Chen et al. 2001; also called GST-Etk-PH; GST-Etk/Bmx; not shown: GST tag"}, "B2": {"name": "wild-type human protease-activated receptor 1 (wt hPar1) (receptor, UniProt P25116 42-425, looked up)", "chain": "SFLLRNPNDKYEPFWEDEEKNESGLTEYRLVSINKSSPLQKQLPAFISEDASGYLTSSWLTLFVPSVYTGVFVVSLPLNIMAIVVFILKMKVKKPAVVYMLHLATADVLFVSVLPFKISYYFSGSDWQFGSELCRFVTAAFYCNMYASILLMTVISIDRFLAVVYPMQSLSWRTLGRASFTCLAIWALAIAGVVPLLLKEQTIQVPGLNITTCHDVLNETLLEGYYAYYFSAFSAVFFFVPLIISTVCYVSIIRCLSSSAVANRSKKSRALFLSAAVFCIFIICFGPTNVLLIAHYSFLSHTSTTEAAYFAYLLCVCVSSISCCIDPLIYYYASSECQRYVYSILCCKESSDPSSYNSSGQLMASKMDTCSSNLNNSIYKKLLT", "notes": "whole, on cells; Tested as protein in cell lysates (pull-down, co-immunoprecipitation, antibody array)"}, "B3": {"name": "HA-tagged wt hPar1 (receptor, human, UniProt P25116 42-425, looked up)", "chain": "B2 chain", "notes": "whole, on cells; Tested in lysates of transfected cells; also called HA-wt hPar1; HA-wthPar1; not shown: HA tag added downstream of the ATG start codon"}, "B4": {"name": "Y381A hPar1 (receptor, human, UniProt P25116 42-425, looked up)", "chain": "B2 chain with Y340A", "notes": "whole, on cells; also called hPar1-Y381A"}, "B5": {"name": "Y381A & Y383A hPar1 double mutant (receptor, human, UniProt P25116 42-425, looked up)", "chain": "B2 chain with Y340A, Y342A", "notes": "whole, on cells; also called Y381A&383A hPar1"}, "B6": {"name": "Y383A hPar1 (receptor, human, UniProt P25116 42-425, looked up)", "chain": "B2 chain with Y342A", "notes": "whole, on cells"}},
  "key": {"[1]": {"target": "B2", "test": "cell lysates on GST-Etk-PH column, anti-PAR1 blot", "procedure": "The IP was performed using anti-PAR1 (ATAP, Santa Cruz, Calif.). FIGS. 7B and 7C are photographs of gels showing peptide competition for PAR1 binding to GST-PH-Etk/Bmx.\nGST fusion protein columns. Fusion proteins were purified from transformed Escherichia coli bacteria that had been stimulated with isopropyl-β-D-thio-galactopyranoside (IPTG) at a concentration of […]. Bacteria were lysed according to published procedures, and then immobilized on glutathione Sepharose beads (Pharmacia). Briefly, MDA-MB-435 cell lysates were applied to GST-PAR1C-tail or GST control columns. After 2 h binding periods to the designated protein/s cell lysates to the columns, a washing step was performed. The washes (×3) were carried out using a “wash buffer” including: 100 mM NaCL, 20 mM EDTA, 10 mM Tris, pH 8.0 and 1% Triton ×100. This step was performed in order to wash out all non-specific proteins, leaving the GST-PAR₁-C-tail column firmly bound to targeted cell lysate proteins. Next, elution of bound proteins was performed via the addition of gel “sample buffer” and appropriate boiling. The samples were run electrophoretically on SDS-PAGE gels, followed by immunoblotting with the indicated antibodies and ECL detection. GST-PH-Etk/Bmx. The PH domain in Etk/Bmx was bound to GST column as previously described (Chen R, et al. (2001) Nat Cell Biol. 3: 439-444). […]"}, "[2]": {"target": "T1, Etk/Bmx (epithelial tyrosine kinase), wild type (UniProt P51813 1-675)", "T1 construct": "Plasmids after Tsai et al. 2000; also called wt-Etk", "T1 sequence (looked up)": "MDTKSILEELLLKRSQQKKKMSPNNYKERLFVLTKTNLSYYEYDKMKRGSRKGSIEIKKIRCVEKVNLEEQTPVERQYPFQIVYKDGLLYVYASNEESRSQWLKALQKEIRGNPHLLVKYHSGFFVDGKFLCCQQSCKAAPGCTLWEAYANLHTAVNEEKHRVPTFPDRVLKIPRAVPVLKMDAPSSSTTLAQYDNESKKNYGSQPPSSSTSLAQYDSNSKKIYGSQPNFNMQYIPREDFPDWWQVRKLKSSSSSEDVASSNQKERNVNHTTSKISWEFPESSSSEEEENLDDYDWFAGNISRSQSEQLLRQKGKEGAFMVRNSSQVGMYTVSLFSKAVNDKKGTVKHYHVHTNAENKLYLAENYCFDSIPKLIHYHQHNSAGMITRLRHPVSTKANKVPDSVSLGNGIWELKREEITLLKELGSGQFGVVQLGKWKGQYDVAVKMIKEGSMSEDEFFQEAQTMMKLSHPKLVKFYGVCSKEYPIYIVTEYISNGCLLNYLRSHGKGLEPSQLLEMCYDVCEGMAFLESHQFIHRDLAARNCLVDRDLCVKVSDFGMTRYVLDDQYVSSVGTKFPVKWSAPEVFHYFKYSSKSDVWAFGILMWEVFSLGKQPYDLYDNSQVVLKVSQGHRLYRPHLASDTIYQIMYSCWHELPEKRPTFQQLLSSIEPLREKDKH", "test": "antibody array with MDA-MB-435 lysates before and after PAR1 activation, biotinylated anti-PAR1 detection", "procedure": "(§1) Antibody array: A custom-made antibody array (hypromatrix) containing thirty antibodies against various proteins was prepared (FIG. 1). The antibodies were immobilized on a membrane, each at a pre-determined position, while retaining their capabilities of recognizing and capturing antigens as well as antigen-associated proteins. MDA-MB-435 cells were activated for 10 min with thrombin (1 U/ml). Untreated or activated cells were lysed with Triton extraction solution: 15 mM Tris, pH 7.5, 120 mM NaCl, 25 mM KCl, 2 mM EGTA, 2 mM EDTA, 0.1 mM DTT, 0.5% Triton X-100, […] and 0.5 mM PMSF. Protein extract was incubated on pre-blocked membrane for 2 h at room temperature. The antibody array was washed with TBST and incubated with biotinylated PAR₁ antibody (ATAP) for 2 h at room temperature. The antibody array was washed again with TBST, and the membrane was incubated with HRP-conjugated streptavidin for 1 h. Protein-protein interactions were detected by ECL and exposure to X-ray film.\n(§2) To detect the putative mediator(s) linking PAR1 to potential signaling proteins, custom-made antibody-array membranes were examined. Aggressive breast carcinoma MDA-MB-435 cells (with high hPar1 levels) were incubated with the antibody-array membranes before and after PAR₁ activation (15 minutes). […]"}, "c-Yes": {"target": "c-Yes (UniProt P07947 2-543)", "sequence (P07947 2-543 limits assumed)": "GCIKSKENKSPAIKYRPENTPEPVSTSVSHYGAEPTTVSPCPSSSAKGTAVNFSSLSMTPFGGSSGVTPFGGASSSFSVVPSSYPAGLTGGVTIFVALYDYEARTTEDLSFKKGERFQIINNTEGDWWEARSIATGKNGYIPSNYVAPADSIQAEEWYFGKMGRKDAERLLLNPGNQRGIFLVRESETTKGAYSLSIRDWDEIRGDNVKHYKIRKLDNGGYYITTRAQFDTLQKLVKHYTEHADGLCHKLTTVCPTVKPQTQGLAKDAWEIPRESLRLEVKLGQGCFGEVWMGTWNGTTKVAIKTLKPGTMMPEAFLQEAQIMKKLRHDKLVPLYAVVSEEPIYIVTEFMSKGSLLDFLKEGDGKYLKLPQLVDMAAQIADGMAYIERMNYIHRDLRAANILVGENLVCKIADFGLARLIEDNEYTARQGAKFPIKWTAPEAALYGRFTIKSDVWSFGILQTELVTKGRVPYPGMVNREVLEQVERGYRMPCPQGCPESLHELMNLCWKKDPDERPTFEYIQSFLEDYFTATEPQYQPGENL", "test": "antibody array with MDA-MB-435 lysates before and after PAR1 activation, biotinylated anti-PAR1 detection", "procedure": "as §1, §2"}, "T7-tagged Etk/Bmx": {"target": "T2, T7-tagged Etk/Bmx (UniProt P51813 1-675)", "T2 construct": "not shown: T7 tag", "T2 sequence (looked up)": "T1 sequence (looked up)", "test": "anti-HA immunoprecipitation, anti-T7 blot"}, "[3]": {"target": "T3, Shc adaptor protein (66, 52 and 46 kDa isoforms) (human, UniProt P29353 1-583, limits assumed)", "T3 construct": "Full-length endogenous protein in cell lysates; three isoforms detected together; also called Shc adapter protein", "T3 sequence (looked up)": "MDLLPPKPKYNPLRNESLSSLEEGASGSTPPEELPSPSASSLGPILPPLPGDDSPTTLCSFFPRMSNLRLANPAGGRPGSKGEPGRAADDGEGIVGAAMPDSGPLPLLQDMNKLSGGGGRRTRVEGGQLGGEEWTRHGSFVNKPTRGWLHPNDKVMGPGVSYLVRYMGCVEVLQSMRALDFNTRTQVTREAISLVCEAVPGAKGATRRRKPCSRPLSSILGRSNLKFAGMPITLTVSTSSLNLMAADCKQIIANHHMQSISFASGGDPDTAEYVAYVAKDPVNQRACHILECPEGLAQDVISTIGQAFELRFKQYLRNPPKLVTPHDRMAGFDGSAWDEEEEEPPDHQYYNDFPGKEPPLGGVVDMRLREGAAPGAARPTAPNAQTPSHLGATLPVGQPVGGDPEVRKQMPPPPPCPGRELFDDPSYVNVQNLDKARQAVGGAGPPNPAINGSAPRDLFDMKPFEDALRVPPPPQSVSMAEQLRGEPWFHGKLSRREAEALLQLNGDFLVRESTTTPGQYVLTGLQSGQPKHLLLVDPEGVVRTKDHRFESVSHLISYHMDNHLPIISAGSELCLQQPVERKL", "test": "association of Shc with PAR1 Y/A mutants (method not detailed)"}, "[4]": {"target": "T1, Etk/Bmx (epithelial tyrosine kinase), …", "test": "Etk/Bmx expressing cell lysates on GST-PAR2 C-tails"}},
  "note": "Changes are numbered by the printed parent chain. Numbers in names are those of the source.",
  "data": [
    {"binder": "B1", "values": [
      {"measurement": "binding result", "setting": "[1]", "result": "binds"}
    ]},
    {"binder": "B2", "values": [
      {"measurement": "binding result", "setting": "[2]", "result": "binds"},
      {"measurement": "binding result", "setting": "c-Yes", "result": "binds"}
    ]},
    {"binder": "B3", "values": [
      {"measurement": "binding result", "setting": "T7-tagged Etk/Bmx", "result": "binds"}
    ]},
    {"binder": "B4", "values": [
      {"measurement": "binding result", "setting": "[3]", "result": "binds"}
    ]},
    {"binder": "B5", "values": [
      {"measurement": "binding result", "setting": "[3]", "result": "binds"}
    ]},
    {"binder": "B6", "values": [
      {"measurement": "binding result", "setting": "[3]", "result": "binds"}
    ]},
    {"binder": "SHDFRDHAKNALLCRSVRTVKQMQVSLTSKKHSRKSSSYSSSSTTVKTSY (other, human, UniProt P55085 348-397, looked up, domain: PAR2 C-tail; not shown: GST tag)", "note": "[GST-PAR2 C-tail wt]", "values": [
      {"measurement": "binding result", "setting": "[4]", "result": "binds"}
    ]}
  ]
}
